{"source": "paper PMC8999790", "about": "“The Transition of Photoreceptor Guanylate Cyclase Type 1 to the Active State” (International Journal of Molecular Sciences, 2022)", "assay_type_in_all_cases": "biochemical, Homo sapiens", "key": {"[1]": {"substrate": "Nc1nc2c(ncn2[C@@H]2O[C@H](COP(=O)(O)OP(=O)(O)OP(=O)(O)O)[C@@H](O)[C@H]2O)c(=O)[nH]1", "assay": "cells, lysate or membranes", "conditions": "Mg-GTP, pH 7.2, 30 °C, half-maximal saturation"}, "[2]": {"substrate": "Nc1nc2c(ncn2[C@@H]2O[C@H](COP(=O)(O)OP(=O)(O)OP(=O)(O)O)[C@@H](O)[C@H]2O)c(=O)[nH]1", "assay": "cGMP formation by HPLC in HEK293 membranes, Hill fit", "conditions": "Mg-GTP, 5 uM GCAP1, <=10 nM free Ca2+ (2 mM EGTA), pH 7.2, 30 °C, half-maximal saturation, Hill h 1.75", "source_text": "cGMP formation by HPLC in HEK293 membranes, Hill fit on human GC-E + GCAP1"}, "[3]": {"substrate": "Nc1nc2c(ncn2[C@@H]2O[C@H](COP(=O)(O)OP(=O)(O)OP(=O)(O)O)[C@@H](O)[C@H]2O)c(=O)[nH]1", "assay": "cGMP formation by HPLC in HEK293 membranes, Hill fit", "conditions": "Mg-GTP, 5 uM GCAP2, <=10 nM free Ca2+ (2 mM EGTA), pH 7.2, 30 °C, half-maximal saturation, Hill h 1.76", "source_text": "cGMP formation by HPLC in HEK293 membranes, Hill fit on human GC-E + GCAP2"}, "[4]": {"substrate": "Nc1nc2c(ncn2[C@@H]2O[C@H](COP(=O)(O)OP(=O)(O)OP(=O)(O)O)[C@@H](O)[C@H]2O)c(=O)[nH]1", "assay": "cGMP formation by HPLC in HEK293 membranes, Hill fit", "conditions": "Mg-GTP, no GCAPs, <=10 nM free Ca2+ (2 mM EGTA), pH 7.2, 30 °C, half-maximal saturation, Hill h 1.58", "source_text": "cGMP formation by HPLC in HEK293 membranes, Hill fit on human GC-E (no GCAPs)"}, "[5]": {"conditions": "5 uM GCAP1, <=10 nM free Ca2+ (2 mM EGTA), Hill h 1.75, apparent KM"}, "[6]": {"conditions": "5 uM GCAP2, <=10 nM free Ca2+ (2 mM EGTA), Hill h 1.76, apparent KM"}, "[7]": {"conditions": "no GCAPs, <=10 nM free Ca2+ (2 mM EGTA), Hill h 1.58, apparent KM"}}}
{"protein": "human GC-E + GCAP1 (Homo sapiens; V902L) (protein, full-length GC-E transiently expressed in HEK293, membrane suspension) AVFTVGVLGPWACDPIFSRARPDLAARLAAARLNRDPGLAGGPRFEVALLPEPCRTPGSLGAVSSALARVSGLVGPVNPAACRPAELLAEEAGIALVPWGCPWTQAEGTTAPAVTPAADALYALLRAFGWARVALVTAPQDLWVEAGRSLSTALRARGLPVASVTSMEPLDLSGAREALRKVRDGPRVTAVIMVMHSVLLGGEEQRYLLEAAEELGLTDGSLVFLPFDTIHYALSPGPEALAALANSSQLRRAHDAVLTLTRHCPSEGSVLDSLRRAQERRELPSDLNLQQVSPLFGTIYDAVFLLARGVAEARAAAGGRWVSGAAVARHIRDAQVPGFCGDLGGDEEPPFVLLDTDAAGDRLFATYMLDPARGSFLSAGTRMHFPRGGSAPGPDPSCWFDPNNICGGGLEPGLVFLGFLLVVGMGLAGAFLAHYVRHRLLHMQMVSGPNKIILTVDDITFLHPHGGTSRKVAQGSRSSLGARSMSDIRSGPSQHLDSPNIGVYEGDRVWLKKFPGDQHIAIRPATKTAFSKLQELRHENVALYLGLFLARGAEGPAALWEGNLAVVSEHCTRGSLQDLLAQREIKLDWMFKSSLLLDLIKGIRYLHHRGVAHGRLKSRNCIVDGRFVLKITDHGHGRLLEAQKVLPEPPRAEDQLWTAPELLRDPALERRGTLAGDVFSLAIIMQEVVCRSAPYAMLELTPEEVVQRVRSPPPLCRPLVSMDQAPVECILLMKQCWAEQPELRPSMDHTFDLFKNINKGRKTNIIDSMLRMLEQYSSNLEDLIRERTEELELEKQKTDRLLTQMLPPSVAEALKTGTPVEPEYFEQVTLYFSDIVGFTTISAMSEPIEVLDLLNDLYTLFDAIIGSHDVYKVETIGDAYMVASGLPQRNGQRHAAEIANMSLDILSAVGTFRMRHMPEVPVRIRIGLHSGPCVAGVVGLTMPRYCLFGDTVNTASRMESTGLPYRIHVNLSTVGILRALDSGYQVELRGRTELKGKGAEDTFWLVGRRGFNKPIPKPPDLQPGSSNHGISLQEIPPERRRKLEKARPGQFS", "values": [{"measurement": "Km", "setting": "[1]; [5]", "result": 200, "unit": "µM"}, {"measurement": "kcat/Km", "setting": "[1]; [5]", "result": 4000, "unit": "M⁻¹ s⁻¹"}, {"measurement": "K0.5", "setting": "[2]", "result": 0.20, "unit": "mM"}, {"measurement": "kcat/Km", "setting": "[2]", "result": 4000, "unit": "M⁻¹ s⁻¹"}]}
{"protein": "human GC-E + GCAP2 (Homo sapiens; V902L) (protein, full-length GC-E transiently expressed in HEK293, membrane suspension) AVFTVGVLGPWACDPIFSRARPDLAARLAAARLNRDPGLAGGPRFEVALLPEPCRTPGSLGAVSSALARVSGLVGPVNPAACRPAELLAEEAGIALVPWGCPWTQAEGTTAPAVTPAADALYALLRAFGWARVALVTAPQDLWVEAGRSLSTALRARGLPVASVTSMEPLDLSGAREALRKVRDGPRVTAVIMVMHSVLLGGEEQRYLLEAAEELGLTDGSLVFLPFDTIHYALSPGPEALAALANSSQLRRAHDAVLTLTRHCPSEGSVLDSLRRAQERRELPSDLNLQQVSPLFGTIYDAVFLLARGVAEARAAAGGRWVSGAAVARHIRDAQVPGFCGDLGGDEEPPFVLLDTDAAGDRLFATYMLDPARGSFLSAGTRMHFPRGGSAPGPDPSCWFDPNNICGGGLEPGLVFLGFLLVVGMGLAGAFLAHYVRHRLLHMQMVSGPNKIILTVDDITFLHPHGGTSRKVAQGSRSSLGARSMSDIRSGPSQHLDSPNIGVYEGDRVWLKKFPGDQHIAIRPATKTAFSKLQELRHENVALYLGLFLARGAEGPAALWEGNLAVVSEHCTRGSLQDLLAQREIKLDWMFKSSLLLDLIKGIRYLHHRGVAHGRLKSRNCIVDGRFVLKITDHGHGRLLEAQKVLPEPPRAEDQLWTAPELLRDPALERRGTLAGDVFSLAIIMQEVVCRSAPYAMLELTPEEVVQRVRSPPPLCRPLVSMDQAPVECILLMKQCWAEQPELRPSMDHTFDLFKNINKGRKTNIIDSMLRMLEQYSSNLEDLIRERTEELELEKQKTDRLLTQMLPPSVAEALKTGTPVEPEYFEQVTLYFSDIVGFTTISAMSEPIEVLDLLNDLYTLFDAIIGSHDVYKVETIGDAYMVASGLPQRNGQRHAAEIANMSLDILSAVGTFRMRHMPEVPVRIRIGLHSGPCVAGVVGLTMPRYCLFGDTVNTASRMESTGLPYRIHVNLSTVGILRALDSGYQVELRGRTELKGKGAEDTFWLVGRRGFNKPIPKPPDLQPGSSNHGISLQEIPPERRRKLEKARPGQFS", "values": [{"measurement": "Km", "setting": "[1]; [6]", "result": 310, "unit": "µM"}, {"measurement": "kcat/Km", "setting": "[1]; [6]", "result": 2200, "unit": "M⁻¹ s⁻¹"}, {"measurement": "K0.5", "setting": "[3]", "result": 0.36, "unit": "mM"}, {"measurement": "kcat/Km", "setting": "[3]", "result": 2200, "unit": "M⁻¹ s⁻¹"}]}
{"protein": "human GC-E (no GCAPs) (Homo sapiens; V902L) (protein, full-length GC-E transiently expressed in HEK293, membrane suspension; no GCAP added) AVFTVGVLGPWACDPIFSRARPDLAARLAAARLNRDPGLAGGPRFEVALLPEPCRTPGSLGAVSSALARVSGLVGPVNPAACRPAELLAEEAGIALVPWGCPWTQAEGTTAPAVTPAADALYALLRAFGWARVALVTAPQDLWVEAGRSLSTALRARGLPVASVTSMEPLDLSGAREALRKVRDGPRVTAVIMVMHSVLLGGEEQRYLLEAAEELGLTDGSLVFLPFDTIHYALSPGPEALAALANSSQLRRAHDAVLTLTRHCPSEGSVLDSLRRAQERRELPSDLNLQQVSPLFGTIYDAVFLLARGVAEARAAAGGRWVSGAAVARHIRDAQVPGFCGDLGGDEEPPFVLLDTDAAGDRLFATYMLDPARGSFLSAGTRMHFPRGGSAPGPDPSCWFDPNNICGGGLEPGLVFLGFLLVVGMGLAGAFLAHYVRHRLLHMQMVSGPNKIILTVDDITFLHPHGGTSRKVAQGSRSSLGARSMSDIRSGPSQHLDSPNIGVYEGDRVWLKKFPGDQHIAIRPATKTAFSKLQELRHENVALYLGLFLARGAEGPAALWEGNLAVVSEHCTRGSLQDLLAQREIKLDWMFKSSLLLDLIKGIRYLHHRGVAHGRLKSRNCIVDGRFVLKITDHGHGRLLEAQKVLPEPPRAEDQLWTAPELLRDPALERRGTLAGDVFSLAIIMQEVVCRSAPYAMLELTPEEVVQRVRSPPPLCRPLVSMDQAPVECILLMKQCWAEQPELRPSMDHTFDLFKNINKGRKTNIIDSMLRMLEQYSSNLEDLIRERTEELELEKQKTDRLLTQMLPPSVAEALKTGTPVEPEYFEQVTLYFSDIVGFTTISAMSEPIEVLDLLNDLYTLFDAIIGSHDVYKVETIGDAYMVASGLPQRNGQRHAAEIANMSLDILSAVGTFRMRHMPEVPVRIRIGLHSGPCVAGVVGLTMPRYCLFGDTVNTASRMESTGLPYRIHVNLSTVGILRALDSGYQVELRGRTELKGKGAEDTFWLVGRRGFNKPIPKPPDLQPGSSNHGISLQEIPPERRRKLEKARPGQFS", "values": [{"measurement": "Km", "setting": "[1]; [7]", "result": 340, "unit": "µM"}, {"measurement": "kcat/Km", "setting": "[1]; [7]", "result": 2100, "unit": "M⁻¹ s⁻¹"}, {"measurement": "K0.5", "setting": "[4]", "result": 0.37, "unit": "mM"}, {"measurement": "kcat/Km", "setting": "[4]", "result": 2100, "unit": "M⁻¹ s⁻¹"}]}
